Laboratory results published in patent publication US20130109846A1 (published 2013).
Substitutions are numbered along the chain they refer to. Names and notes keep the numbering of the source.

B1: 1h-239-891 (other)
VL: DIQMTQSPSSLSASVGDRVTITCRASRPIWPFLEWYQQKPGKAPKLLIYFTSRLRHGVPSRFSGSGSGTDFTLTISSLQPEDFATYYCLQNVANPATFSQGTKVEIKR
B2: 1h-239-891(D70C) 30K linear PEG (other)
VL: B1 VL with D70C
modifications: 30 kDa linear PEG; engineered cysteine D70C
B3: 1h-239-891(D70C) 40K branched PEG (other)
VL: B1 VL with D70C
modifications: 40 kDa branched PEG; engineered cysteine D70C

Experiments:
Test in all cases: cell-based or functional assay
[1] = molecular target: T1, human CD28 (human, UniProt P10747 19-220)
[2] = molecular target: T1, human CD28; remark: listed apart in the source
[3] = molecular target: T1, human CD28; remark: listed apart in the source
[4] = molecular target: T1, human CD28; remark: listed apart in the source

Binder | DC-MLR Assay (EC50 nM) [1] [nM] | Luciferase assay (EC50 nM) [1] [nM] | IFNγ (EC50 nM), DC-driven MLR [2] [nM] | IL-2 (EC50 nM), DC-driven MLR [2] [nM] | TNFα (EC50 nM), DC-driven MLR [2] [nM] | CD80 CHO (EC50 nM), T cell proliferation [3] [nM] | CD86 CHO (EC50 nM), T cell proliferation [3] [nM] | EC50 of T cell proliferation, Monocytes as APC [4]
B1 | 0.5 | 0.2 | 0.2 | 0.1 | 0.2 | 0.3 | 0.4 | –
B2 | 1.2 | – | 0.6 | 0.6 | 0.6 | 1 | 0.5 | –
B3 | 2.3 | – | 2.5 | 1.5 | 1.7 | 0.4 | 0.4 | 10
